Columns and labels:
RAJI cells = assay: JNG assay, co-culture with RAJI cells; format: cell-based; details: for GFP induction / activity: co-culture with RAJI cells; for NFAT-GFP ASSAY: Raji: JNG cells expressing construct, co-culture with Raji
Outline: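 Read-out is NFAT-driven GFP measured by flow cytometry after ~4–18 h co-culture of SAR-expressing JNG cells with target cells (E:T about 1:2). SARs were introduced by lentiviral spinfection and selected with puromycin or blasticidin when possible; scores (+/- to 5+ ≈ 5–50% GFP+) are relative to parental JNG cells.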

LNCaP cells = assay: JNG assay, co-culture with LNCaP cells; format: cell-based; details: for GFP induction: LNCaP cells, only in the presence of SAR-adaptor PSMA-USC76-chVH-G4S-ULBP2-S3 (SEQ ID NO: 23114); for NFAT-GFP ASSAY: LNCaP: co-culture with LNCaP
Protocol: Cellular supernatant is collected and assayed for the induction of cytokines (e.g., IL2).
JNG (Jurkat cells expressing EGFP under an NFAT promoter) were infected with lentiviral vectors encoding different single chain and multi-chain SARs by spinfection in the presence of 8 µg/ml of Polybrene® (Sigma, Catalog no. H9268). The Jurkat-NFAT-GFP cells are engineered in such a way that the IL-2 promoter, which carries NFAT binding sites, is cloned upstream of the GFP gene. These cells have been used to study signaling via TCR and CAR. The different SARs were stably expressed in Jurkat NFAT-GFP cells by lentiviral mediated gene transfer, followed by selection with puromycin or blasticidin. No drug selection was used in case the construct lacked an antibiotic resistance gene. The SAR-expressing Jurkat-NFAT-GFP cells were cocultured with the target cells at E:T ratio of approximately 1:2 for approximately 4 hours to 18 hours. When the interaction between SIRs and their target antigen results in activation of the NFAT pathway, GFP expression is induced. […] GFP expression was monitored by FACS analysis. The Jurkat-NFAT-GFP (parental) cells were used as control. The structure of different constructs can be determined based on their names. For example, the construct CD8SP-CD19-hu-mROO5-1-vL-[hTCRa-C SDVP]-F-F2A-Spe-IgHSP-Apa-CD20-vHH-2HCD25-G4S-CDl9-hu-mROO5-1-vH-Mlu-[hTCRb-KACIAH]-F-P2A-PAC has the following modules from 5′ to 3′ direction: a CD8 signal peptide (CD8SP), the CD19 targeting hu-mROO5-1 vL fragment (CD19-hu-mROO5-1), Xho1 cloning site, human TCRa constant chain containing CSDVP mutations (hTCRa-CSDVP), Furine cleavage site (F), F2A ribosomal skip sequence (F2A), SpeI site, human IgH signal peptide (IgHSP), Apa I restriction enzyme site, camelid CD20-2HCD25-VHH module targeting CD20, BamHI restriction enzyme site, Glycinex4-serine linker (G4S), BstI restriction enzyme site, CD19-hu-mROO5-1-vH fragment targeting CD19, Mlu I restriction enzyme site, human TCRb constant chain containing KACIAH mutations ([hTCRb-KACIAH]), Furine cleavage site (F), P2A ribosomal skip sequence and Puromycin resistance gene (PAC). The sequence of the other constructs in the table can be similarly determined from their names and by referring to the different Tables of this disclosure that provide the names and SEQ ID NO of the different modules. Alternatively, the composition and modular architecture of the different SAR constructs can be determined from their sequences by bioinformatics tools, including using nucleic acid and amino acids homology searches. A SAR is considered positive in the assay in case the SAR expressing Jurkat-NFAT-GFP cells show greater % GFP positive cells when cultured with the target cell line as compared to parental Jurkat-NFAT-GFP cells. The signs +/-, +, 2+ etc. after the name of the cell lines indicate the relative degree of positivity on the Jurkat-NFAT-GFP assay as measured by the % GFP positive cells after culture of the SAR expressing Jurkat-NFAT-GFP cells with that cell line above the % GFP cells observed in parental Jurkat NFAT-GFP cells serving as controls. In general, the number +/-, +, 2+, 3+, 4+, 5+ refer to approximately 5%, 10%, 20%, 30%, 40% and 50% GFP positive cells. The % of GFP induction in the above assay is dependent not only the relative strength of the SAR but also, among other factors, on the relative level of expression of the SAR in the JNG cells and the relative level of expression of the target antigen in the target cell line. To control for the difference in gene transduction efficiency of the different SAR constructs, the experiment was conducted with JNG cells transduced with SAR constructs co-expressing a drug resistance gene (e.g., puromycin or PAC) followed by drug selection to generate a stable population of SAR-expressing cells. […]

B1: SEQ ID NO: 22288: SAR with adaptor binding domain (Table 48) (protein)
chain: MALPVTALLLPLALLLHAARPACLFNQEVQIPLTESYCGPCPKNWICYKNNCYQFFDESKNWYESQASCMSQNASLLKVYSKEDQDLLKLVKSAHWMGLVHIPTNGSWQWEDGSILSPNLLTIIEMQKGDCALYASSFKGYIENCSTPNTYICMQRTVLEGQPKANPTVTLFPPSSEELQANKATLVCLISDFYPGAVTVAWKADGSPVKAGVETTKPSKQSNNKYAASSYLSLTPEQWKSHRSYSCQVTHEGSTVEKTVAPTECSPIKTDVITMDPKDNCSKDANDTLLLQLTNTSAYYMYLLLLLKSVVYFAIITCCLLRRTAFCCNGEKSRAKRSGSGATNFSLLKQAGDVEENPGPTSATMDWIWRILFLVGAATGAHSGPQVQLQESGGGLAQAGGSLRLSCAASGRTFSMGWFRQAPGKEREFVAAITYSGGSPYYASSVRGRFTISRDNAKNTVYLQMNSLKPEDTAVYYCAANPTYGSDWNAENWGQGTQVTVSSGSGGGGSGGGGSGGGGSFEDLFNQEVQIPLTESYCGPCPKNWICYKNNCYQFFDESKNWYESQASCMSQNASLLKVYSKEDQDLLKLVKSAHWMGLVHIPTNGSWQWEDGSILSPNLLTIIEMQKGDCALYASSFKGFIENCSTPNTYICMQRTVTRASTKGPSVFPLAPSSKSTSGGTAALGCLVKDYFPEPVTVSWNSGALTSGVHTFPAVLQSSGLYSLSSVVTVPSSSLGTQTYICNVNHKPSNTKVDKRVEPKSCEVKTDSTDHVKPKETENTKQPSKSCHKPKAIVHTEKVNMMSLTVLGLRMLFAKTVAVNFLLTAKLFFLRAKRSGSGVKQTLNFDLLKLAGDVESNPGPSRGHMTEYKPTVRLATRDDVPRAVRTLAAAFADYPATRHTVDPDRHIERVTELQELFLTRVGLDIGKVWVADDGAAVAVWTTPESVEAGAVFAEIGPRMAELSGSRLAAQQQMEGLLAPHRPKEPAWFLATVGVSPDHQGKGLGSAVVLPGVEAAERAGVPAFLETSAPRNLPFYERLGFTVTADVEVPEGPRTWCMTRKPGA
- GFP induction / activity (RAJI cells): Essentially similar results
- GFP induction (LNCaP cells): Essentially similar results

B2: SEQ ID NO: 22287: NKG2D-YA-G4Sx3-NKG2D-YA domain attached to the hu-mROO5-1 vH fragment of an Ab-TCR via a G4S linker (protein)
chain: MALPVTALLLPLALLLHAARPACEVQLLESGGGLIQPGGSLRLSCAASGFTFSSHAMTWVRQAPGKGLEWVSAISGSGDYTHYADSVKGRFTISRDNSKNTVYLQMNSLRAEDSAVYYCAKDEDGGSLLGHRGQGTLVTVSSGTGGGGSGGGGSGGGGSEFDIQMTQSPSSLSASVGDRVTITCKASDHINNWLAWYQQKPGQAPKLLIYGATTLETGVPSRFSGSGSGTDYTLTISSLQPEDFATYYCQQSWNTPWTFGQGTKLEIKRLEGQPKANPTVTLFPPSSEELQANKATLVCLISDFYPGAVTVAWKADGSPVKAGVETTKPSKQSNNKYAASSYLSLTPEQWKSHRSYSCQVTHEGSTVEKTVAPTECSGRADCGFTSESYQQGVLSATILYEILLGKATLYAVLVSALVLMAMVKRKDSRGRAKRSGSGATNFSLLKQAGDVEENPGPTSTMDWIWRILFLVGAATGAHSLFNQEVQIPLTESYCGPCPKNWICYKNNCYQFFDESKNWYESQASCMSQNASLLKVYSKEDQDLLKLVKSAHWMGLVHIPTNGSWQWEDGSILSPNLLTIIEMQKGDCALYASSFKGYIENCSTPNTYICMQRTVSGGGGSGGGGSGGGGDLFNQEVQIPLTESYCGPCPKNWICYKNNCYQFFDESKNWYESQASCMSQNASLLKVYSKEDQDLLKLVKSAHWMGLVHIPTNGSWQWEDGSILSPNLLTIIEMQKGDCALYASSFKGYIENCSTPNTYICMQRTVGSGGGGSGGGGSGGGGSFEQVQLQQPGAELVKPGASVKMSCKASGYAFSSYWINWMKQKPGQGLEWIGQIYPGDGDTNYNGKFKGRATLTADTSSSTAYMQLSSLTSEDSAVYFCARSITTVVGCAMDYWGQGTSVTVSSTRASTKGPSVFPLAPSSKSTSGGTAALGCLVKDYFPEPVTVSWNSGALTSGVHTFPAVLQSSGLYSLSSVVTVPSSSLGTQTYICNVNHKPSNTKVDKRVEPKSCIPEDTFFPSPESSCDVKLVEKSFETDTNLNFQNLSVIGFRILLLKVAGFNLLMTLRLWSSRAKRSGSGVKQTLNFDLLKLAGDVESNPGPSRGHMTEYKPTVRLATRDDVPRAVRTLAAAFADYPATRHTVDPDRHIERVTELQELFLTRVGLDIGKVWVADDGAAVAVWTTPESVEAGAVFAEIGPRMAELSGSRLAAQQQMEGLLAPHRPKEPAWFLATVGVSPDHQGKGLGSAVVLPGVEAAERAGVPAFLETSAPRNLPFYERLGFTVTADVEVPEGPRTWCMTRKPGA
- GFP induction / activity (RAJI cells): robust induction of GFP
- GFP induction (LNCaP cells): induction of GFP

B3: 22043 (protein)
chain: MALPVTALLLPLALLLHAARPQLQLQESGPGLVKPSETLSLTCTVSGDSISSGDYYWGWIRQPPGKGLEWIGHIYYSGVTYYNPSLKSRVTISVDTSRNQFSLKLSSVTAADTAVYYCTREDSSNWRSRGQGTLVTVSSLEDKTHTCPPCPAPIKTDVITMDPKDNCSKDANDTLLLQLTNTSAYYMYLLLLLKSVVYFAIITCCLLRRTAFCCNGEKSRAKRSGSGATNFSLLKQAGDVEENPGPTSMDWIWRILFLVGAATGAHSFEVQLVESGGGVVQPGRSLRLSCAASGFSFSGYGMHWVRQAPGKGLEWVAYISYDGSNKYYADSVKGRFTISRDNSKNTLYLQMNSLRAEDTAVYYCAKDPAWGLRLGESSSYDFDIWGQGTMVTVSSTRDKTHTCPPCPAIPEDTFFPSPESSCDVKLVEKSFETDTNLNFQNLSVIGFRILLLKVAGFNLLMTLRLWSSRAKRSGSGVKQTLNFDLLKLAGDVESNPGPSRGHMTEYKPTVRLATRDDVPRAVRTLAAAFADYPATRHTVDPDRHIERVTELQELFLTRVGLDIGKVWVADDGAAVAVWTTPESVEAGAVFAEIGPRMAELSGSRLAAQQQMEGLLAPHRPKEPAWFLATVGVSPDHQGKGLGSAVVLPGVEAAERAGVPAFLETSAPRNLPFYERLGFTVTADVEVPEGPRTWCMTRKPGA
- NFAT-GFP ASSAY: Raji (RAJI cells): +/- (refer to approximately 5%, 10%, 20%, 30%, 40% and 50% GFP positive cells)
- NFAT-GFP ASSAY: LNCaP (LNCaP cells): + (refer to approximately 5%, 10%, 20%, 30%, 40% and 50% GFP positive cells)

B4: 22055 (protein)
chain: MALPVTALLLPLALLLHAARPQLQLQESGPGLVKPSETLSLTCTVSGDSISSGDYYWGWIRQPPGKGLEWIGHIYYSGVTYYNPSLKSRVTISVDTSRNQFSLKLSSVTAADTAVYYCTREDSSNWRSRGQGTLVTVSSLEGSEVKTDSTDHVKPKETENTKQPSKSCHKPKAIVHTEKVNMMSLTVLGLRMLFAKTVAVNFLLTAKLFFLRAKRSGSGVKQTLNFDLLKLAGDVESNPGPTSMDWIWRILFLVGAATGAHSFEVQLVESGGGVVQPGRSLRLSCAASGFSFSGYGMHWVRQAPGKGLEWVAYISYDGSNKYYADSVKGRFTISRDNSKNTLYLQMNSLRAEDTAVYYCAKDPAWGLRLGESSSYDFDIWGQGTMVTVSSTRGSGRADCGFTSESYQQGVLSATILYEILLGKATLYAVLVSALVLMAMVKRKDSRGRAKRSGSGATNFSLLKQAGDVEENPGPSRGHMTEYKPTVRLATRDDVPRAVRTLAAAFADYPATRHTVDPDRHIERVTELQELFLTRVGLDIGKVWVADDGAAVAVWTTPESVEAGAVFAEIGPRMAELSGSRLAAQQQMEGLLAPHRPKEPAWFLATVGVSPDHQGKGLGSAVVLPGVEAAERAGVPAFLETSAPRNLPFYERLGFTVTADVEVPEGPRTWCMTRKPGA
- NFAT-GFP ASSAY: Raji (RAJI cells): +/- (refer to approximately 5%, 10%, 20%, 30%, 40% and 50% GFP positive cells)
- NFAT-GFP ASSAY: LNCaP (LNCaP cells): + (refer to approximately 5%, 10%, 20%, 30%, 40% and 50% GFP positive cells)

— patent US20230212319A1, “NOVEL ANTIGEN BINDING DOMAINS AND SYNTHETIC ANTIGEN RECEPTORS INCORPORATING THE SAME” (University of Southern California, priority 2020, published 2023)
